This note sets out measurements from the NTF2 design screens of Basanta et al. (2020).

This data set is described as follows: protease stability score; higher = more stable; yeast display proteolysis, trypsin and chymotrypsin.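 Also: relative to predicted unfolded state with 0 unfolded-like and 1 meaning tenfold more protease.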
Turning to “SEEHEISERLAWMIFELYRTGNEQSIRHLMDPRARIDVNGKEIHGRHIWKERFEEHLVFFKNLRFHLDDVDVQGDKIDIHGTNRFDGRHVRFDLHIHVVDGRLKVITVRIDER”, the protease stability score is 1.55.

The sequence “SEEERDTIEFARLWLENYLTGDEETMKELADPRTLSTFRFENHHLHLHGMHLHFTWLHQIRIRHFQPREVSVVNGKTTIDGEYHGEVGDKSHTTRVIIRLEIVNGKIKSVEIEVK” displayed a protease stability score of 1.07.

The sequence “SEEERLMEEAMKEFVNNSLTGDFHKMSNLADPNTRIEIDGRELHGRELAEELWERIKNLTVEIKDYKVQGDKVIIYVKIHVNGREKDVILYVQKINGRWLLRHVEVR” displayed a protease stability score of 1.34.

For “DEDDEDADNAIRLIVHSMLTGNEDFFSRLLDPNVRLDYNGVEFIGREDVVRFWNQMRFEFRVEVRRTSSQGDKVNWDIRLRIILHFNGKRHDRLHDTVLISRKYNGKWHVEQIEVR”, the protease stability score is 1.54.

For “SEEDKELEEFFRMYIHAARTGDWHTLTRLLDPNVLLMVNGRETHGMDKVKELLKRLGVDYINIEHVEVHRMDFQGDKLRMDTTEDGFVNGVRTHRSVHHILVKVDGRWYIESVHIK”, the protease stability score stood at 2.02.

“DEEVAKKMMEAWMKALQNGNDEQMKKLYDPTVRWEDGNTEKQGLEVVVKLVQTVKKKGIEFQVRKAKVKGNQVEVHYDMKVGDDTVTFTVQFRAQGGRIQEVRVEISEEARKAVKKG” yielded a protease stability score of 1.32.

In turn, “DEEDRFAEEYIRLLHEIIKTGDWHQLKRMVDPNARWDVNGVDVIGMEEYVRVWKDEIDRFKGLRLHPRIRHVDFINGRIHVHSEKKVEYGDKEETFETKRHIFLFNGVDTHFSIRID” registered a protease stability score of 0.278.

“DEEEKRAHEIVRRFLKWFLTGDEEASRKNMDPSVIMVINIGDKRIELHGMEQVSEFWHETVRRYDHIDIKLKDIEVQGDKAVTHGHLELRVGDKRFETDVQIILIYIDGRISFMSVNIV” yielded a protease stability score of 2.48.

As for “DEEEELIKHHLELHLEAVKTGDEEHLHRNMDPNVRLHVNGQDRHGREDVSTLLREIRLKDFKIHDVDIQGNKMRFDGFILGEINGREHNVHTTIYAEKVDGRWLIRHFEIR”, the protease stability score came to 1.04.

In turn, “DEEKDEVREIAERIFHNLRTGDEEKLKHLIDPHVRFEYGDKEHHGWEEMVHFLREWRIHHIHIRDIKVYDGVAHVNGEVDGKFNGRRFRSDTWVIIVTINGRVKQISIQIN” returned a protease stability score of 1.33.

Regarding “DEHEREMHRLVDLLIKLLETGDEEISLRLADPHTRHDINGVHDHGRDKWEKSWEEHKKHLGWRIHYRIRDFRTQGDKARMEIQVDLHIGDKNIHLETHLLLISIDGVIKEIRIIIL”, the protease stability score is 1.39.

For “SEDEKNSRKFLEDWIRALETGDEHRLEELLDPHVLVIVDGVHYWGMEIFLKERRRHGFKLKDVRLEHMTIQGDKVILHVQIEVHINGRDHHLESYIIIEKVNGRWHVSKLELR”, the protease stability score turned out to be 2.71.

“DEDEENIRKEVEIFKHLLETGNEQEMSKLADPNTRFYYGDKTIHGREEMIKFLHEEWRHLGVKHNEYRVKEMRSINGRAIIHGELIWKSENEIIHRDVLIIARKVDGKWVSESVHVH” yielded a protease stability score of 1.23.

Regarding “REDDERIDEMVELIFHWEQTGDEEKVYNNMDPHVRIDYNGRELHGWKKFTEELRLIYEEMRLKHIHISHQTIQGEKAIVHVELEGQVGDKRYIHRREIIVLKIDGKWIIKMVRFV”, the protease stability score is 1.49.

For “SEEEESARRAWEKILHVLETGDERDSRRLMDPDTKIEQGDKTEHGMEKIAKMITEWRFHDVKLTDMRVIGDKVEIDGTVRGEFDGREYKIHVFILVVKINGRWVIHKTVLG”, the protease stability score is 1.06.

The sequence “SEKQKLAEHFAKEFIHSLETGNEEFLEHLADPDTRLEVGDKEIHGMHHLSRWLHEHLHRYKNVRWSIEITSIEVQGDKIIIHGTLHLNIDGVEIRELIVIEIDVVNGRVKSEHRDKL” registered a protease stability score of 1.38.

“SEDEEEWHEATHLLVESLKTGDWKDLSRLADPNAKLHVGEKTVIGRELVSKHLKNRMTELGINHIHIEDRESQGDKIFIISHIHVNGREMKSIFIILKIDGRWILHSMEIREH”: the protease stability score is 0.327.

Sequence “DEHEEASKLAIELLLTLERTGDEDKLRKLVDPNVRYDINGRELHGWEFMHRMIRHLRTEHVTIERVHVQGDWIHIDRILNVNVNGKEINIRTKINAQKINGVWIEREVEIQ” returned a protease stability score of 1.09.

With “SELEEILKIARRFFEIVMRTGDPRDIERLLDPNAKLIIDGQEIHGREKMSNTFEEMVRRYDVVKSIEDKDWKIVNGRVDLDITLNGRVDGKDISTRVIIHVEKINGRWFMREVNIE”, the protease stability score worked out at 2.14.

In turn, “TELEEDIVRAWERFVRSLETGNERSIRELMDPNPRIVIGDYEFHGREAIEELLRRIDVIKSVELRHFRLQGEKARLDTTETGHIDGRDVTYETRIISLKVNGVWVLKRIEVR” returned a protease stability score of 1.53.

“SEHDEYAKKVVEIIWKDMLTGDEDKFSEMADPDVRLDIGDKHHHGMEEMTEILTRVYKHIRIEDWRIRDIRHINGKAVVDGHTTIEIGDKRIHRRVELIVIVIDGRLKTLEYRVH”: the protease stability score came to 1.09.

“STLEEHVFRMAYEIITDLETGDEEYYKKRADPDMYVHIRIGDKEVEIHGREHFIQWVKRLFEEIRIHWRIRDMHIVDGVYRFHTELEIRIGDKEHRIKSEVKVVVVNGKIKQLEIRIK” registered a protease stability score of 2.

As to “SEDEEVMKRAHELSARVMKTGDEETFRELADPDVRRNVNGVVRHGMENVIHLLRILFDEIRPRHFELTHMEVQGDKVRMEIRNDVRIGDKEVQLRVILIASKVNGRWHLQEVHVE”, the protease stability score is -0.496.

“GEHEDYILHIVDLFIHNILTGDWDAILKLMDPDVRFEIEINGRTIEIHGWEQIKRIMDEIKERADHLHIEIRDKFSVNGVAFFEGTIEIRVGDKRHREDVEIILFVVDGRIKIIRKRDV” yielded a protease stability score of 1.99.

Turning to “DHDDHMREHLIELFIRWTTTGDFDELLRLVDPNARFDVNGREIHGWDVFMKMYEDTRHLLGADHAEVRNKDERFQGDKVTITIEVTIEVGDKEHREERELYVRKVDGKWTMKSLKIR”, the protease stability score was determined as 0.703.

In turn, “SEEDEVSERLAREYLHIWKTGDEDRLAKLLDPHTRFIYVIGDKELELIGRDKFAEFLRHLWEELGVNHFDVHDFKVYGEKVQLDTTEEYGDKNFRMHIDIVVIDGKVKFIRIKER” displayed a protease stability score of 1.33.

In turn, “REEEEHLERVMSLILLIMSTGDFKTLSELFDPHARLRVGDKHLIGWSFVADWIVKFKNMQLRHHRRHVVNGVVEVEDEFRVGDKRFTLRLLFLVVDGVVKEVHIEIEDR” showed a protease stability score of 0.833.

Take “DEEHEWMHIMMELLLRAFETGDPDLFEHLADPNTRLQIGDKTIHGRTKVSTWLHREIRRADHLEIRLREYDYQGDKLEMKTELIIQQGDKQVQLETRVIIIKINGRWFLESIEIN”: the protease stability score amounted to 1.23.

As to “SEEEEWMEEFRERWERNFMTGDEDAMRELADPNVRIDIGEWDVHGREHLAELLKRHLDTLGINHVEFDHSTVIDGVIHIHMTINVNGKRIYSEVRLLVVNGKLKHSHYDIK”, the protease stability score is 1.01.

Sequence “SESEHKAREMIRLIEHFLITGDEESWHRLFDPHTRVVIDGREIHGMEIYNHWLKELRIRDSHIHIRTIEDINGRINIHGELQLHGIINGQTHDFRSHIDLHVLKFNGRWHMETYIIS” came in with a protease stability score of 1.57.

Sequence “SELEESVRWAAEVFVKYTLTGNEHLLSRYFDPNVRVHFDGVDLHGREELSKLFLHIRFRRIHLRSEKEFEGHAELDQEHDGHYNGVRHNRTLRLHMIKINGQWITEVFILH” had a protease stability score of 1.34.

“SEEEHWLDDAFRWLIELIFTGDETEIEKMIDPNVKIHIGEKNNHGREIMIEWLERLGVKHVREMRIRHVHRQGNKLIVHGEIHREVDGVKIETESLIVAKKVDGQWHLQSVRVN” showed a protease stability score of 2.37.

“SEEEELAERMIRIWQKDIRTGNEESLSKFIDPNVRNEYGDKTHHGRHVFADVIRRILDELGVTNVHSRLTRMEIQGDKVRVDVQINIDGQEYRIEVHFEKVNGRWNVTSWNIR” returned a protease stability score of 0.698.

“DEKRKEMEQLARIIIHLWETGDEEKWREYADPNTRLDVDGRNSHGMHNTLEVLRRRLEELGFDHVEMEIKHITVIGDKAQINGKVHLYWNGKTIDVPSEIIIVIINGRLHSIELRHE” gave a protease stability score of 1.44.

On to “DEKSDIYHQALRLWIDTMVTGDENLYERLLDPHVRVEIGDKEIHGRERVSEFFKRFAEHLGVDHVELHDFRYQGDYVRLRISIEYNGQHLDTDLIITKINGRWYIHSEKYK”, for which the protease stability score turned out to be 1.26.

In turn, “DELTEIMLRIAQLILTILLTGNEDHFKRLFDPNVRLTINGVDFVGREWIVHFMRNLTDELRIKDNKIEDIRVQGDKAKVDSRLDGEVDGQHMELRTSYVLIKIDGRWSVHSVEFR” had a protease stability score of 1.26.

Sequence “SEEDEHSERALTLLNHLIMTGDFHDWERFFDPHVRFVVNGVEFHGREDVVRFLLELLERFKNVKIEMESWEIQGDKITSHYHEHVNGVRIERTVIMRKFNGRWFIQEVRFN” gave a protease stability score of 0.281.

Regarding “TEEDEMWHKFMEHYVHNFLTGDPNKAKKLADPDTRFEIDGKDVVGMERIIDEFLKVPGLRSEIKRVTFIGDKIHIDGRMIINGVETKVDIDIHVVNGVIKSIHIRVR”, the protease stability score came out at 0.74.

In the case of “SEDHRDAEKFLRLFMELFKTGDFEELFRLVDPNVRLEINGREFHGRELVKKLLKEEHDRYKNATSEVEIDRIHIQGDWVHADIELRLDYNGKTLRWETHLVMLKVDGRWFVRSYSER”, the protease stability score stood at 2.6.

Sequence “SEEEKHWRKVINLLRRWHLTGDEHNLLELFDPNYRLHQGDKEIHGMELYIEIFERELKKVPNLKINFDSKHIEVQGEKARAETELDVNIDGRRIEFETRLYSIKFNGKWFVHSMEVK” came in with a protease stability score of 0.553.

“REDEEFAIHMFLNLIRWLMTGDEEQLEELADPDTKYHQGDKTLHGREEFLKWFHLMHKWLGIKHIEMRITDLRAVDGRVESEVSVDEHYDGRTKRYRTIIIVNVVNGKLKSEERHID” displayed a protease stability score of 1.22.

The sequence “DELERRAEEVFRQWLHYWLTGDFESMERLADPNVRIVINGVELIGMEHVAREIVHRIRHWRVRIQIDRIDNQGDKVHSEGKLIIHQGEKNIHHDITIHFDVVNGKIKHLEIRIQ” showed a protease stability score of 2.24.

In the case of “REDEEHTKELLDAWQEAVETGDEDFILELFDPHVRSQVGDKERHGRHSFLELLRRLLEELGFDHVQFHITHREIQGDKITVETRLIFEYGDKRLEVQVEVEVKKINGRWYIHSVRWK”, the protease stability score is 1.87.

“DEEERLMKELSDRFLHMKETGDEELFHKLADPNVRVEIGDKSRHGRELATEFLSWVMKELGVKHVKLHDKRTYDGRVHLNGTLEFNGREFRVRITVIIVNGRVHDIRVELE” gave a protease stability score of 0.771.

On to “SDEEKFMHEMYELILKALHTGDEEFLEHFADPNTRLHINGRERHGRDEMKEFFKKFLDHWRIERFHVRSVEIFDGRVTSDTEIRGNIDGVRSEHRTDINIVIVNGRLKEINIHIE”, for which the protease stability score was 0.537.

On to “DEEEEMAKKILDDLTHLLETGDEEVFRHLADPNVKVDELVNGRKIHRHGRQDWREIFKEMRLRHIHIRRVHVQGDKLHNDIEVDGDFNGRSHRDRTELILVIVDGRLRTIEIHVN”, for which the protease stability score is 1.18.

The sequence “DEDEEIIEKWVKMMLDAAHTGDERIIEENFDPNTRIHVDGQNHHGREHVHELRRRADYIRIILIIRSIRTQGDYVHVKGEIRIRINWNGRELHLEVEVEIIFLKFDGRWHIRSIVSI” showed a protease stability score of 0.889.
